Results: PMC5916551

Target: Transforming growth factor β1 (TGFβ1) (human) (UniProt P01137)
Assay: SPR

Chain of UniProt P01137 (P01137 279-390): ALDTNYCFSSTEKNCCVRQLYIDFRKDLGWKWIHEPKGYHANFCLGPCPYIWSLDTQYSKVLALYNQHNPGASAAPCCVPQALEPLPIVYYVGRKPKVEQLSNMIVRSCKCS

Kd: 139 nM
Substance: Metelimumab (CAT192 IgG4) (antibody)
